Test results as given in patent US20210115124A1 (Genentech, published 2021).

T1: human VEGF (hVEGF) (human, UniProt P15692 181-395)
T1 construct: also called VEGF-A
T1 sequence: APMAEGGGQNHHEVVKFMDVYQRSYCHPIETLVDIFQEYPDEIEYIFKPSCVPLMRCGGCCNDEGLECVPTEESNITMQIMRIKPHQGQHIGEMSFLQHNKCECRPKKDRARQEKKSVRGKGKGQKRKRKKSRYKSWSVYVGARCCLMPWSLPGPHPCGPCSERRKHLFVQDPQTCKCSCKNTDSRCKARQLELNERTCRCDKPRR

B1: G6.31 HC-A40E, HC-T57E (Fab, V domains shown)
VH: EVQLVESGGGLVQPGGSLRLSCAASGFTISDYWIHWVRQEPGKGLEWVAGITPAGGYEYYADSVKGRFTISADTSKNTAYLQMNSLRAEDTAVYYCARFVFFLPYAMDYWGQGTLVTVSS
VL: DIQMTQSPSSLSASVGDRVTITCRASQDVSTAVAWYQQKPGKAPKLLIYSASFLYSGVPSRFSGSGSGTDFTLTISSLQPEDFATYYCQQGYGNPFTFGQGTKVEIK
notes: Fab
B2: R19HCLC4 (Fab, V domains shown)
VH: EEQLVEEGGGLVQPGESLRLSCAASGFEISDYWIHWVRQEPGEGLEWVAGITPAGGYEYYADSVEGRFTISADTSENTAYLQMNELRAEDTAVYYCARFVFFLPYAMDYWGQGELVTVSS
VL: DIQMTQSPSSLSASVGDEVTITCRASQDVSTAVAWYQQKPGKAPKLLIYSASFLYSGVPSRFSGSGSGTDFTLTISSLQPEDAATYYCQQGYGAPFTFGQGTKVEIK
notes: Fab
B3: R19HCLC2 (Fab, V domains shown)
VH: EEQLVEEGGGLVQPGESLRLSCAASGFEISDYWIHWVRQEPGEGLEWVAGITPAGGYEYYADSVEGRFTISADTSENTAYLQMNELRAEDTAVYYCARFVFFLPYAMDYWGQGELVTVSS
VL: DIQMTQSPSSLSASVGDEVTITCRASQDVSTAVAWYQQKPGEAPKLLIYSASFLYSGVPSRFSGSGSGTDFTLTIESLQPEDAATYYCQQGYGAPFTFGQGTKVEIK
notes: Fab
B4: R19HCLC5 (Fab, V domains shown)
VH: EEQLVEEGGGLVQPGESLRLSCAASGFEISDYWIHWVRQEPGEGLEWVAGITPAGGYEYYADSVEGRFTISADTSENTAYLQMNELRAEDTAVYYCARFVFFLPYAMDYWGQGELVTVSS
VL: DIQMTQSPSSLSASVGDRVTITCRASQDVSTAVAWYQQKPGKAPKLLIYSASFLYSGVPSRFSGSGSGTDFTLTISSLQPEDAATYYCQQGYGAPFTFGQGTKVEIK
notes: Fab
B5: HCLC1 (Fab, V domains shown)
VH: EEQLVEEGGGLVQPGESLELSCAASGFEISDYWIHWVRQEPGEGLEWVAGITPAGGYEYYADSVEGRFTISADTSENTAYLQMNELRAEDTAVYYCARFVFFLPYAMDYWGQGELVTVSS
VL: DIQMTQSPESLSASVGDEVTITCRASQDVSTAVAWYQQKPGKAPKLLIYSASFLYSGVPSRFSGSGSGTDFTLTISSLQPEDAATYYCQQGYGAPFTFGQGTKVEIK
notes: Fab
B6: HCLC3 (Fab, V domains shown)
VH: EEQLVEEGGGLVQPGESLELSCAASGFEISDYWIHWVRQEPGEGLEWVAGITPAGGYEYYADSVEGRFTISADTSENTAYLQMNELRAEDTAVYYCARFVFFLPYAMDYWGQGELVTVSS
VL: DIQMTQSPESLSASVGDEVTITCRASQDVSTAVAWYQQKPGEAPKLLIYSASFLYSGVPSRFSGSGSGTDFTLTISSLQPEDAATYYCQQGYGAPFTFGQGTKVEIK
notes: Fab
B7: HCLC4 (Fab, V domains shown)
VH: EEQLVEEGGGLVQPGESLELSCAASGFEISDYWIHWVRQEPGEGLEWVAGITPAGGYEYYADSVEGRFTISADTSENTAYLQMNELRAEDTAVYYCARFVFFLPYAMDYWGQGELVTVSS
VL: DIQMTQSPSSLSASVGDEVTITCRASQDVSTAVAWYQQKPGKAPKLLIYSASFLYSGVPSRFSGSGSGTDFTLTISSLQPEDAATYYCQQGYGAPFTFGQGTKVEIK
notes: Fab
B8: HCLC2 (Fab, V domains shown)
VH: EEQLVEEGGGLVQPGESLELSCAASGFEISDYWIHWVRQEPGEGLEWVAGITPAGGYEYYADSVEGRFTISADTSENTAYLQMNELRAEDTAVYYCARFVFFLPYAMDYWGQGELVTVSS
VL: DIQMTQSPSSLSASVGDEVTITCRASQDVSTAVAWYQQKPGEAPKLLIYSASFLYSGVPSRFSGSGSGTDFTLTIESLQPEDAATYYCQQGYGAPFTFGQGTKVEIK
notes: Fab
B9: HCLC5 (Fab, V domains shown)
VH: EEQLVEEGGGLVQPGESLELSCAASGFEISDYWIHWVRQEPGEGLEWVAGITPAGGYEYYADSVEGRFTISADTSENTAYLQMNELRAEDTAVYYCARFVFFLPYAMDYWGQGELVTVSS
VL: DIQMTQSPSSLSASVGDRVTITCRASQDVSTAVAWYQQKPGKAPKLLIYSASFLYSGVPSRFSGSGSGTDFTLTISSLQPEDAATYYCQQGYGAPFTFGQGTKVEIK
notes: Fab
B10: G6.31 LC-F83A, LC-N94A, LC-T22D (Fab, name in Kabat numbering, V domains shown)
VH: EVQLVESGGGLVQPGGSLRLSCAASGFTISDYWIHWVRQAPGKGLEWVAGITPAGGYTYYADSVKGRFTISADTSKNTAYLQMNSLRAEDTAVYYCARFVFFLPYAMDYWGQGTLVTVSS
VL: DIQMTQSPSSLSASVGDRVTIDCRASQDVSTAVAWYQQKPGKAPKLLIYSASFLYSGVPSRFSGSGSGTDFTLTISSLQPEDAATYYCQQGYGAPFTFGQGTKVEIK
notes: Fab
B11: G6.31 HC-A40E, HC-T57E, LC-F83A, LC-N94A, LC-T22D (Fab, name in Kabat numbering, V domains shown)
VH: EVQLVESGGGLVQPGGSLRLSCAASGFTISDYWIHWVRQEPGKGLEWVAGITPAGGYEYYADSVKGRFTISADTSKNTAYLQMNSLRAEDTAVYYCARFVFFLPYAMDYWGQGTLVTVSS
VL: DIQMTQSPSSLSASVGDRVTIDCRASQDVSTAVAWYQQKPGKAPKLLIYSASFLYSGVPSRFSGSGSGTDFTLTISSLQPEDAATYYCQQGYGAPFTFGQGTKVEIK
notes: Fab
B12: G6.31 Y58R.N94A.F83A (Fab, name in Kabat numbering, V domains shown)
VH: EVQLVESGGGLVQPGGSLRLSCAASGFTISDYWIHWVRQAPGKGLEWVAGITPAGGYTRYADSVKGRFTISADTSKNTAYLQMNSLRAEDTAVYYCARFVFFLPYAMDYWGQGTLVTVSS
VL: DIQMTQSPSSLSASVGDRVTITCRASQDVSTAVAWYQQKPGKAPKLLIYSASFLYSGVPSRFSGSGSGTDFTLTISSLQPEDAATYYCQQGYGAPFTFGQGTKVEIK
notes: Fab
B13: G6.31 LC-N94R (Fab, V domains shown)
VH: EVQLVESGGGLVQPGGSLRLSCAASGFTISDYWIHWVRQAPGKGLEWVAGITPAGGYTYYADSVKGRFTISADTSKNTAYLQMNSLRAEDTAVYYCARFVFFLPYAMDYWGQGTLVTVSS
VL: DIQMTQSPSSLSASVGDRVTITCRASQDVSTAVAWYQQKPGKAPKLLIYSASFLYSGVPSRFSGSGSGTDFTLTISSLQPEDFATYYCQQGYGRPFTFGQGTKVEIK
notes: Fab

What was measured:
[1] = biological target: T1, human VEGF (hVEGF); test: SPR
Text: (§1) To determine the binding affinity of selected Fab variants, SPR measurement with a BIACORE® T200 instrument was used. Briefly, series S sensor chip CM5 was activated with 1-ethyl-3-(3-dimethylaminopropyl) carbodiimide (EDC) and N-hydroxysuccinimide (NHS) reagents according to the supplier's instructions, and human VEGF (hVEGF) was coupled to achieve 50-80 response units (RU), then following by blocking un-reacted groups with 1M ethanolamine.
(§2) Three-fold serial dilutions of Fab in HBS-P buffer (0.01 M HEPES pH 7.4, 0.15 M NaCl, 0.005% surfactant P20) from low (0.02 nM) to high (50 nM) were injected (flow rate: 30 μl/min). The binding responses on hVEGF were corrected by subtracting of RU from a blank flow cell. The sensorgram was recorded and subject to reference and buffer subtraction before evaluating by BIACORE® T200 Evaluation Software (version 2.0). Association rates (kₒₙ) and dissociation rates (koff) were calculated using a simple one-to-one Langmuir binding model. The equilibrium dissociation constant (Kd) was calculated as the ratio koff/kₒₙ.

[2] = biological target: T1, human VEGF (hVEGF); test: SPR; remark: listed apart in the source
Text: as §1, §2

[3] = biological target: T1, human VEGF (hVEGF); test: SPR; remark: listed apart in the source
Text: as §1, §2

[4] = biological target: T1, human VEGF (hVEGF); test: SPR; remark: listed apart in the source
Text: as §1, §2

[5] = biological target: T1, human VEGF (hVEGF); test: SPR multiple-cycle
Text: as §1, §2

| Binder | Kd [2] [nM] | koff [2] [s⁻¹] | kon [2] [M⁻¹ s⁻¹] | Kd [3] [nM] | koff [3] [s⁻¹] | kon [3] [M⁻¹ s⁻¹] | other results |
| --- | --- | --- | --- | --- | --- | --- | --- |
| B1 | – | – | – | – | – | – | Kd [1]: 0.272 nM; koff [1]: 0.000804 s⁻¹; kon [1]: 2.96e+06 M⁻¹ s⁻¹ |
| B2 | 0.169 | 4.79e-05 | 284000 | 0.169 | 4.79e-05 | 284000 | – |
| B3 | – | 4.67e-05 | 889000 | – | 4.67e-05 | 889000 | – |
| B4 | 0.0624 | 4.41e-05 | 707000 | 0.062 | 4.41e-05 | 707000 | – |
| B5 | 0.442 | 0.000607 | 1.37e+06 | 0.442 | 0.000607 | 1.37e+06 | – |
| B6 | 0.33 | 0.000608 | 1.84e+06 | 0.33 | 0.000608 | 1.84e+06 | – |
| B7 | 0.299 | 0.000608 | 2.03e+06 | 0.299 | 0.000608 | 2.03e+06 | – |
| B8 | 0.293 | 0.000623 | 2.12e+06 | 0.293 | 0.000623 | 2.12e+06 | – |
| B9 | 0.316 | 0.000573 | 1.81e+06 | 0.316 | 0.000573 | 1.81e+06 | – |
| B10 | – | – | – | – | – | – | Kd [1]: 0.558 nM; koff [1]: 0.000744 s⁻¹; kon [1]: 1.33e+06 M⁻¹ s⁻¹ |
| B11 | – | – | – | – | – | – | Kd [1]: 0.597 nM; koff [1]: 0.000718 s⁻¹; kon [1]: 1.2e+06 M⁻¹ s⁻¹ |
| B12 | – | – | – | – | – | – | Fold improved (relative to WT) [4]: 3.9 fold; Kd [4]: 0.135 nM; koff [4]: 0.000301 s⁻¹; kon [4]: 2.22e+06 M⁻¹ s⁻¹ |
| B13 | – | – | – | – | – | – | Kd [5]: 2.09 nM; koff [5]: 0.000407 s⁻¹; kon [5]: 194000 M⁻¹ s⁻¹ |
